The conditions of data set [1]: cited from earlier work.
For data set [2] the following is noted: thought: two apoA-I molecules (10 helices/molecule) reside in discoidal HDL particles; cited from earlier work.
Data set [3] can be described thus: Size exclusion chromatography of DMPC-based peptide nanoparticles. The format is physicochemical. The settings on record: construct 300 μM, PBS, overnight, Superdex 200, standard curve of four globular proteins. (Size exclusion chromatography separates by hydrodynamic size, large species first.)
A further data set deals with plasma total cholesterol. The settings on record: cited from earlier work.

Where “and” joins values, the source holds several entries; their conditions need not be identical. Equal entries are not always repeated.

“apoA-I: Apolipoprotein A-I, the primary structural protein within HDL particles”: the “plasma half-life in mice” value in data set [1] is 11 h. Also, in data set [2], the “helices per particle (value in parentheses)” value is given as 20. The “SEC Stokes diameter” value in data set [3] was 15 nm and 10 nm. The “reduction in plasma cholesterol levels, in words” value in the data set with plasma total cholesterol is given as “neither apoA-I nor rHDLs cause significant reduction”.

The values above are taken from paper PMC3839580 (Journal of the American Chemical Society, 2013).
